Results from US20250243290A1.
Where “and” joins values, the source holds several entries; their conditions need not be identical. Equal entries are not always repeated. Where two headings read alike, the source gives them in different places.

What was measured:
Experiment in all cases: peptide-array ELISA [Con't]
[1] = molecular target: C22SK2…2CAV2…
CQA2TREQNRI2T2…2RLC [2] = molecular target: CQA2TREQNRI2T2…2RLC
[3] = molecular target: QEGCRL2…
[4] = molecular target: WVPE2…
…2N = molecular target: …2N
Sequence of …2N (peptide, as listed by the source): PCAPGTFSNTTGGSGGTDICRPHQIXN

…2R [5] = molecular target: …2R
2LS2…2RPG = molecular target: 2LS2…2RPG
2LS2…2…2 = molecular target: 2LS2…2…2
[6] = molecular target: 2LSCGSR2…
2TREQNRI2…2R = molecular target: 2TREQNRI2…2R
[7] = molecular target: 2…
[8] = molecular target: C22SK2…2CQA2TREQNRI2T2RPC
[9] = molecular target: C2T2RPGWY2…2…
CAPLRK2…2TSTSPTRC = molecular target: CAPLRK2…2TSTSPTRC
[10] = molecular target: CAV2…2…
CDQVETQA2…2RLC = molecular target: CDQVETQA2…2RLC
[11] = molecular target: CGWY2ALSKQEG2RL2CQA2TREQNRI2T2RPC
[12] = molecular target: CI2RPHQI2…2…
[13] = molecular target: CLSKQEG2RL2APLRKCQA2TREQNRI2T2RPC
CLSKQEG2RL2…2TREQNRIC = molecular target: CLSKQEG2RL2…2TREQNRIC
CNASMDAV2…2TREQNRI2T2RPC = molecular target: CNASMDAV2…2TREQNRI2T2RPC
CNASMDAV2…2TSTSPTRC = molecular target: CNASMDAV2…2TSTSPTRC
CNWVPE2LS2GSR2…2TSTSPTRC = molecular target: CNWVPE2LS2GSR2…2TSTSPTRC
[14] = molecular target: CQA2TREQNRI2T2RPCQA2TREQNRI2T2RPC
CQA2TREQNRI2T2…2RLC [15] = molecular target: CQA2TREQNRI2T2…2RLC; remark: listed apart in the source
CQTAQM22SK2…2TSTSPTRC = molecular target: CQTAQM22SK2…2TSTSPTRC
[16] = molecular target: CQTAQM22SK2…2…
[17] = molecular target: CTSSTDI2RPHQI2NVCAPLRK2…
[18] = molecular target: CTSSTDI2RPHQI2NVCQA2TREQNRI2T2RPC
[19] = molecular target: DI2…
Sequence of DI2… (peptide, as listed by the source): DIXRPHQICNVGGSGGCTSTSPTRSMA

[20] = molecular target: DVV2…
EQNRI2…2RL = molecular target: EQNRI2…2RL
NWVPE2…2T2 = molecular target: NWVPE2…2T2
PE2LS2…2R = molecular target: PE2LS2…2R
QEG2…2APGTFSN = molecular target: QEG2…2APGTFSN
QNRI2…2R = molecular target: QNRI2…2R
REQNRI2…2RL = molecular target: REQNRI2…2RL
[21] = molecular target: S2…2…
[22] = molecular target: STDI2…
Sequence of STDI2… (peptide, as listed by the source): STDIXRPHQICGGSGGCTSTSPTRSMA

VPE2LS2…2R = molecular target: VPE2LS2…2R
[23] = molecular target: VPE2LSCGSR2…
[24] = molecular target: …22SK2CAPLRK2…
…22SK2CQA2TREQNRI2T2RPC = molecular target: …22SK2CQA2TREQNRI2T2RPC
…2LS2GCLSKQEG2RL2APLRKC = molecular target: …2LS2GCLSKQEG2RL2APLRKC
[25] = molecular target: …2RLCAPLRK2…
…2R [26] = molecular target: …2R; remark: listed apart in the source
…2SK2SPGQ = molecular target: …2SK2SPGQ
…2TREQNRI2T2RPC = molecular target: …2TREQNRI2T2RPC
…2TSTSPTRC = molecular target: …2TSTSPTRC
Sequence of …2TSTSPTRC (peptide, as listed by the source): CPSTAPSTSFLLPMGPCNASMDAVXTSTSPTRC

[27] = molecular target: …2…2…
[28] = molecular target: …2…

Sequence of QEGCRL2… (peptide, as listed by the source): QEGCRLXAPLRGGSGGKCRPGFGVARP

agonistic TNFR2 antibody MR2-1 showed a Raw luminescence data [1] of 181, a Raw luminescence data (CQA2TREQNRI2T2…2RLC [2]) of 178 and a Raw luminescence data [3] of 173. The Raw luminescence data [4] was 186 and 181, the Raw luminescence data (…2N) was 175 and the Raw luminescence data (…2R [5]) was 180. It also gave a Raw luminescence data (2LS2…2RPG) of 162, a Raw luminescence data (2LS2…2…2) of 167 and a Raw luminescence data [6] of 157. For the same substance, the Raw luminescence data (2TREQNRI2…2R) was 164, the Raw luminescence data [7] was 170 and the Raw luminescence data [8] was 158. The Raw luminescence data [9] was 161, the Raw luminescence data (CAPLRK2…2TSTSPTRC) was 167 and the Raw luminescence data [10] was 171. For the same substance, the Raw luminescence data (CDQVETQA2…2RLC) was 157, the Raw luminescence data [11] was 158 and the Raw luminescence data [12] was 165. For the same substance, the Raw luminescence data [13] was 158, the Raw luminescence data (CLSKQEG2RL2…2TREQNRIC) was 160 and the Raw luminescence data (CNASMDAV2…2TREQNRI2T2RPC) was 157. For the same substance, the Raw luminescence data (CNASMDAV2…2TSTSPTRC) was 164, the Raw luminescence data (CNWVPE2LS2GSR2…2TSTSPTRC) was 161 and the Raw luminescence data [14] was 166. For the same substance, the Raw luminescence data (CQA2TREQNRI2T2…2RLC [15]) was 171, the Raw luminescence data (CQTAQM22SK2…2TSTSPTRC) was 164 and the Raw luminescence data [16] was 161. It also gave a Raw luminescence data [17] of 158, a Raw luminescence data [18] of 166 and a Raw luminescence data [19] of 166. It also gave a Raw luminescence data [20] of 159, a Raw luminescence data (EQNRI2…2RL) of 159 and a Raw luminescence data (NWVPE2…2T2) of 168. It also gave a Raw luminescence data (PE2LS2…2R) of 162, a Raw luminescence data (QEG2…2APGTFSN) of 167 and a Raw luminescence data (QNRI2…2R) of 170. The Raw luminescence data (REQNRI2…2RL) was 161, the Raw luminescence data [21] was 171 and the Raw luminescence data [22] was 159. It also gave a Raw luminescence data (VPE2LS2…2R) of 170, a Raw luminescence data [23] of 165 and a Raw luminescence data [24] of 168. For the same substance, the Raw luminescence data (…22SK2CQA2TREQNRI2T2RPC) was 158, the Raw luminescence data (…2LS2GCLSKQEG2RL2APLRKC) was 164 and the Raw luminescence data [25] was 165. For the same substance, the Raw luminescence data (…2R [26]) was 160, the Raw luminescence data (…2SK2SPGQ) was 163 and 156 and the Raw luminescence data (…2TREQNRI2T2RPC) was 163. For the same substance, the Raw luminescence data (…2TSTSPTRC) was 159, the Raw luminescence data [27] was 160 and the Raw luminescence data [28] was 166 and 165.
